The results in this text go back to patent US20220088279A1 (GAMBRO LUNDIA, published 2022).

By Kd is commonly meant a measure of binding affinity in units of concentration. Read a high Kd as a looser complex.

The target in the test is T1, CD177 (UniProt Q8N6Q3 22-408, limits assumed).
T1 construct: Immobilized on a GLH sensor chip by amine chemistry for SPR; also called neutrophil receptor CD177
T1 sequence (looked up): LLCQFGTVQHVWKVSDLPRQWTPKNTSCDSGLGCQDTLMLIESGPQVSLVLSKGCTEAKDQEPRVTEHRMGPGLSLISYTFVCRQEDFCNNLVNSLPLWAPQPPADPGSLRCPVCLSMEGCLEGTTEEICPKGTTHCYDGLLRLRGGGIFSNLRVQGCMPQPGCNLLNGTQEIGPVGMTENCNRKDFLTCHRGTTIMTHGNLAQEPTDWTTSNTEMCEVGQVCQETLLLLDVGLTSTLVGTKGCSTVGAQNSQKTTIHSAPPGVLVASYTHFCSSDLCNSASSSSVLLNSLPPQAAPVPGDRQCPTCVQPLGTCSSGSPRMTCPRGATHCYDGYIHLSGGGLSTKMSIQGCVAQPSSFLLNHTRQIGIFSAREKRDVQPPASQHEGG
The test is described as follows: SPR (ProteOn XPR36), CD177 immobilized on GLH chip by amine chemistry, PR3 variant in a concentration series. The protocol:
FIG. 2: Comparison of wtPR3 and monomeric PR3 properties by SPR and ELISA. […] The antibodies each recognize distinct, non-overlapping epitopes on PR3. wtPR3 (left bar) and the monomeric Trp222Ala PR3 variant (right bar) are equally well recognized by the antibodies.
Experiments were performed on a ProteOn XPR36 instrument (BioRad) with proteins immobilized to GLH sensor chips (BioRad) using standard amine chemistry. The binding interaction of a concentration series of soluble monomeric Trp222Ala PR3 variant with immobilized CD177 was assessed (FIG. 2A).

B1: monomeric Trp222Ala PR3 variant (enzyme)
chain: IVGGHEAQPHSRPYMASLQMRGNPGSHFCGGTLIHPSFVLTAAHCLRDIPQRLVNVVLGAHNVRTQEPTQQHFSVAQVFLNNYDAENKLNDVLLIQLSSPANLSASVATVQLPQQDQPVPHGTQCLAMGWGRVGAHDPPAQVLQELNVTVVTFFCRPHNICTFVPRRKAGICFGDSGGPLICDGIIQGIDSFVIAGCATRLFPDFFTRVALYVDWIRSTLRRVEAKGRP
notes: Made as a C-terminal fusion with human Ig1 Fc and secreted through an N-terminal Ig1 signal peptide; The propeptides aa 26-27 and aa 249-256 may also be absent, and residues left by the TEV site may remain at the C-terminus; also called monomeric PR3
B1 registered a Kd of 57 nM. In other words, the double-digit nanomolar range.
